# Measured values: patent US20220177604A1 (ARGENX, published 2022)
# Residue numbers refer to the chain shown, from its start.
# B1: OmaVH15G55H - VL3D28HS31H (antibody, V domains shown)
# VH: EVQLVESGGGLVQPGGSLRLSCAVSGYSITSGHRWEWIRQAPGKGLEWVASIHYDHSTNYNPSVKGRITISRDDSKNTFYLQMNSLRAEDTAVYYCARATHYFGHWHFAVWGQGTLVTVSS
# VL: DIQLTQSPSSLSASVGDRVTITCRASQSVDYHGDHYMNWYQQKPGKAPKLLIEWGSYLRSGVPSRFSGSGSGTDFTLTISSLQPEDFATYYCQQNAEDPYTFGQGTKVEIK
# B2: OmaVH15G55H - VL3D28H (antibody, V domains shown)
# VH: B1 VH
# VL: B1 VL with H35S
# notes: also called OmaVH15G55H VL3D25H
# B3: OMA VH15 - VL3D28H (antibody, V domains shown)
# VH: B1 VH with H56G
# VL: B1 VL with H35S
# notes: also called OMA VH15 VL3D25H
# B4: OMA VH15 - VL3D28HS31H (antibody, V domains shown)
# VH: B1 VH with H56G
# VL: B1 VL
# B5: OmaVH15G55HW100b - VL3 (antibody, V domains shown)
# VH: B1 VH with W106H
# VL: B1 VL with H32D, H35S
# B6: OmaVH15G55HW100b - VL3D28H (antibody, V domains shown)
# VH: B1 VH with W106H
# VL: B1 VL with H35S
# notes: also called OmaVH15G55HW100b VL3D25H
# B7: OMA VH15 - VL3S31H (antibody, V domains shown)
# VH: B1 VH with H56G
# VL: B1 VL with H32D
# B8: OmaVH15G55H - VL3 (antibody, V domains shown)
# VH: B1 VH
# VL: B1 VL with H32D, H35S
# B9: Oma VH15W100b - VL3 (antibody, V domains shown)
# VH: B1 VH with H56G, W106H
# VL: B1 VL with H32D, H35S
# B10: OmaVH15G55H - VL3S31H (antibody, V domains shown)
# VH: B1 VH
# VL: B1 VL with H32D
# B11: 18E2 human IgG1 mAb (antibody, V domains shown)
# VH: QLQLVESGGGLVQPGGSLRLSCAASGFTFSSYVMSWVRQAPGKGLEWVSSIYHDGSHTYYADFVKGRFTISRDNAKNTLYLQMNSLKSEDTAVYYCASGTSYSGSYYYTDPFFGSWGQGTQVTVSS
# VL: NFMLTQPSALSVTLGQTARITCQGDRLGSRYIYWYQQKPPQAPVLVIHDDDRRPSGIPERFSGSSSGGTATLTISGAQAEDDGDYYCQSADSSGNPVFGGGTHLTVL
# notes: also called clone 18E2
# B12: OMA VH15 - VL3 (antibody, V domains shown)
# VH: B1 VH with H56G
# VL: B1 VL with H32D, H35S
# B13: 18B9_VH_S35H_VL_Y49H (antibody, V domains shown)
# VH: QVQLVESGGGLVQPGGSLRLSCAASGFTFSSYVMHWVRQAPGKGLEWVSSIYSDGSHTYYADSVKGRFTISRDNAKNTLYLQMNSLKSEDTAVYYCAKNLEHYSGSYYYTDPRYDYWGQGTQVTVSS
# VL: SSALTQPSALSVTLGQTAKITCQGGSLGSSYVHWYQQKPGQAPVLVIHDGDSRPSGIPERFSGSSSGGTATLTISGAQAEDEDDYYCQSADSSGNAVFGGGTHLTVL
# B14: VH18B9_S35H (antibody, V domains shown)
# VH: B13 VH
# VL: B13 VL with H48Y
# B15: VL18E2_Y34H (antibody, V domains shown)
# VH: B11 VH
# VL: B11 VL with Y33H
# B16: VH18E2_S35H (antibody, V domains shown)
# VH: B11 VH with S35H
# VL: B11 VL
# B17: VH3D1_S35H (antibody, V domains shown)
# VH: QLQVVESGGGLVQPGGSLRLSCAASGFTFSSYYMHWVRQAPGKGLEWVSSIYSDGRGSKTFYADSVKGRFTISRDNAKNTLYLQMNSLKSEDTAVYFCAKDLLVAARGSMDYWGQGTQVTVSS
# VL: NFMLTQPSAVSVSLEQTARITCQGGTLGSYGAHWYQQKPGQAPVLLIYGDNSRPSGIPERFSGTRSGGTATLTISGAQAEDEADYYCQSFDYSGNAVFGGGTHLTVL
# B18: VL3D1_Y49H VL3D1_Q89H (antibody, V domains shown)
# VH: B17 VH with H35S
# VL: B17 VL with Y48H, Q88H
# Biological target: T1, human immunoglobulin E (hIgE) (human, UniProt P01854-1 1-428)
# T1 construct: also called human IgE; Native IgE (Abcam)
# Assay: SPR (Biacore)
# T1 sequence (P01854 whole entry): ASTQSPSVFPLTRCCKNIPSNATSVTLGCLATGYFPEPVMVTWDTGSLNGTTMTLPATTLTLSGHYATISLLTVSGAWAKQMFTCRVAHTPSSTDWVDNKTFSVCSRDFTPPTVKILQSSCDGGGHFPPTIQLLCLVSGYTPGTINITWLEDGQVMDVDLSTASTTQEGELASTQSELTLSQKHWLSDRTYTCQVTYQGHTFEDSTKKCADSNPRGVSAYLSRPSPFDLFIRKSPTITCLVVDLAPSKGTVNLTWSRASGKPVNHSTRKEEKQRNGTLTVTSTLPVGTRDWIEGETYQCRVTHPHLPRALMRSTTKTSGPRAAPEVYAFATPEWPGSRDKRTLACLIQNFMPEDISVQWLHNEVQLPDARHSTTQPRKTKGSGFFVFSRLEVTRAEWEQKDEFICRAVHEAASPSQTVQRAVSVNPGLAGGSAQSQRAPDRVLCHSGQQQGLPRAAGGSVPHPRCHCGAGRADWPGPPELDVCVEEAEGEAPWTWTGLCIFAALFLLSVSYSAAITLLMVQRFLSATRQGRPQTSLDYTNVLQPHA
row,Binder,Ratio pH 7.4/pH6.0 (of KD)
1,B1,6.4
2,B2,6
3,B3,15.6
4,B4,11.7
5,B5,17.2
6,B6,9
7,B7,16.7
8,B8,5.6
9,B9,10.2
10,B10,6.8

# Biological target: T1, human immunoglobulin E (hIgE)
# Assay: competition ELISA
# Protocol: (§1) The IC50 values of each compound were calculated with a non-linear regression (log(agonist) vs. response Variable slope (four parameters)).
row,Binder,Ratio pH 6/7.4 (IC50)
1,B11,2.4

# Biological target: T2, recombinant Motavizumab human IgE (rMota-hIgE) (human, UniProt P01854 1-428)
# T2 construct: also called Recombinant IgE (argenx)
# Assay: hIgE binding ELISA
# Protocol: (§2) Briefly a Maxisorp plate was coated with recombinant human respiratory syncytial virus protein F (RSV-F) (0.5 μg/mL), then blocked with PBS with 3% BSA and 0.05% Tween. […] After several washing steps at pH 7.4 or pH 5.5, detection of the bound mAbs was carried out with an anti-human Fc-HRP antibody.
# T2 sequence (P01854 other isoform, or with tags, fused parts or gaps limits assumed, form in doubt): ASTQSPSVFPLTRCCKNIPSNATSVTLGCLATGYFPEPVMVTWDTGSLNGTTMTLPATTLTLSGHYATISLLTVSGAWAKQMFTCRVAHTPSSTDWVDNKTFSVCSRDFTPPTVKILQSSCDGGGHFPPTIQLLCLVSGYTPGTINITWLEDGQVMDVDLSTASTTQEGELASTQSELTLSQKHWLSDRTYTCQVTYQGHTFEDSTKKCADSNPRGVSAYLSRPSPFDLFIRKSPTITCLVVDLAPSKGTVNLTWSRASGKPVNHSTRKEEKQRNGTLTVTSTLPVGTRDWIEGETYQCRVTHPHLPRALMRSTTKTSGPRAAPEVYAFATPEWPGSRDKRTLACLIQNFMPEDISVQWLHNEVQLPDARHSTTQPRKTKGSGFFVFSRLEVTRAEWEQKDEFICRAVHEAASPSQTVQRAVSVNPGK
Binder,Ratio EC50 pH 5.5/7.4,Ratio EC50 pH 7.4/5.5
B12,1.1,0.93
B1,1.5,0.67
B2,0.9,1.05
B3,1,0.99
B4,1.2,0.86
B5,13.5,0.07
B6,9.6,0.1
B7,0.9,1.12
B8,0.9,1.16
B9,1.9,0.53
B10,1.5,0.67

# Biological target: T1, human immunoglobulin E (hIgE)
# Assay: SPR (Biacore), pH 6.0
Binder,Kd [nM],koff [s⁻¹],kon [M⁻¹ s⁻¹]
B12,1.03,0.00029,281000
B1,16.1,0.00527,326000
B2,4.39,0.00117,265000
B3,2.62,0.000736,281000
B4,12.8,0.00398,310000
B5,150,0.0254,170000
B6,136,0.0648,123000
B7,8.93,0.00228,261000
B8,1.8,0.000524,291000
B9,29.8,0.00875,294000
B10,9.07,0.00297,329000

# Biological target: T1, human immunoglobulin E (hIgE)
# Assay: SPR (Biacore), pH 7.4
Binder,Kd [nM],koff [s⁻¹],kon [M⁻¹ s⁻¹]
B12,< 0.0769,< 1e-05,130000
B1,2.52,0.000722,286000
B2,0.728,0.000206,283000
B3,0.168,4.41e-05,264000
B4,1.1,0.000334,302000
B5,8.69,0.00226,261000
B6,15.2,0.00303,200000
B7,0.534,0.000166,310000
B8,0.326,0.000105,323000
B9,2.93,0.00103,351000
B10,1.33,0.000402,301000

# Biological target: T2, recombinant Motavizumab human IgE …
# Assay: hIgE binding ELISA, pH 5.5
# Protocol: as §2
row,Binder,EC50 [µg/mL]
1,B12,0.0217
2,B1,0.023
3,B2,0.0251
4,B3,0.0164
5,B4,0.0178
6,B5,0.221
7,B6,0.13
8,B7,0.0179
9,B8,0.022
10,B9,0.0326
11,B10,0.023

# Biological target: T2, recombinant Motavizumab human IgE …
# Assay: hIgE binding ELISA, pH 7.4
# Protocol: as §2
row,Binder,EC50 [µg/mL]
1,B12,0.0202
2,B1,0.0154
3,B2,0.0264
4,B3,0.0163
5,B4,0.0153
6,B5,0.0164
7,B6,0.0135
8,B7,0.02
9,B8,0.0255
10,B9,0.0174
11,B10,0.0153

# Biological target: T1, human immunoglobulin E (hIgE)
# Assay: competition ELISA, hIgE to hFcεRIα
row,Binder,IC50 [nM]
1,B12,0.0803
2,B1,2.63
3,B2,0.187
4,B3,0.137
5,B4,0.722
6,B5,23.2
7,B6,172
8,B7,0.206
9,B8,0.0753
10,B9,1.4
11,B10,0.485

# Biological target: T1, human immunoglobulin E (hIgE)
# Assay: SPR competition, hIgE over hFcεRIα chip, pH 5.5
# Protocol: (§3) The assay was performed in HBS-EP pH7.4 or HBS-EP pH 5.5. Raw data were analyzed via BIA evaluation software with a blank subtraction (2-1). […] The IC50 values of each compound were calculated with a non-linear regression (log(agonist) vs. response Variable slope (four parameters)).
# (§4) Raw data were analyzed via BIA evaluation software with a blank subtraction (2-1). […] The IC50 values of each compound, calculated with a non-linear regression (log(agonist) vs. response Variable slope (four parameters)).
row,Binder,IC50 [µg/mL]
1,B13,24.6
2,B14,22.3
3,B11,0.484
4,B15,5.18
5,B16,3.73
6,B17,23
7,B18,15.2

# Biological target: T1, human immunoglobulin E (hIgE)
# Assay: SPR competition, hIgE over hFcεRIα chip, pH 7.4
# Protocol: as §3, §4
row,Binder,IC50 [µg/mL]
1,B13,26.3
2,B14,21.7
3,B11,0.628
4,B15,1.1
5,B16,0.811
6,B17,15.5
7,B18,4.41

# Biological target: T1, human immunoglobulin E (hIgE)
# Assay: competition ELISA, biotin-hIgE to coated hFcεRIα, pH 6
# Protocol: as §1
row,Binder,IC50 [nM]
1,B11,87.8

# Biological target: T1, human immunoglobulin E (hIgE)
# Assay: competition ELISA, biotin-hIgE to coated hFcεRIα, pH 7.4
# Protocol: as §1
row,Binder,IC50 [nM]
1,B11,36.9
